Data set [1] has as its system MS2 coat protein. The experiment in a line: apparent KD of MS2 coat protein, switch ON state; designed switch direction (-1 OFF switch, 1 ON switch): -1; higher = weaker reporter binding. The note with it: FMN input: 0 or 200 uM; Eterna round: R93 (includes R88 designs). The essentials: (§1)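 On-chip transcription from Illumina sequencing clusters produced the designed RNA switches. These were titrated with SNAP-549-labelled MS2 coat protein (twofold steps, 0.7 or 1.5 nM to 3 µM) in 100 mM Tris-HCl pH 7.5, 80 mM KCl, 4 mM MgCl2, with or without constant ligand. The apparent KD given is the per-design median of normalised cluster binding-curve fits.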

In data set [2] the test system is MS2 coat protein. Briefly: apparent KD of MS2 coat protein, switch OFF state (with FMN for OFF switches, without FMN for ON switches); designed switch direction (-1 OFF switch, 1 ON switch): -1; higher = weaker reporter binding. To be noted: FMN input: 0 or 200 uM; Eterna round: R93 (includes R88 designs). The essentials: as §1

As for “AGAAAACAUGAGGAUCACCCAUGUCAGGAUAUCCAAAUAAAAAUAAAAUAAAAUAAAAGGAGAAGGGACAAAAG [May 1]”, the figures for the “apparent KD of MS2 coat protein” value in data set [1] and in data set [2] were 49.2 nM and 66.9 nM, respectively.

For the sequence “AGAAAACAUGAGGAUCACCCAUGUCAGGAUAUCUAAAAGAAAAGAAAAGAAAGAAGAAGGAGAAGGGACAAGAA [Djoser]”, the “apparent KD of MS2 coat protein” value in data set [1] came to 21.2 nM; in data set [2], 21.8 nM.

As for “AGAAACGUAGGAUAUACAUGAGGAUCACCCAUGUAAAGAAAGAAGGGAGCCACAAGAAGUAGAAGGACGAAGAA [JR_Exc003_Sub004]”, the “apparent KD of MS2 coat protein” value came to 33.4 nM in data set [1] and 131 nM in data set [2].

Regarding “AGAAAGCGAGGAUAUGCACGGGAAGAAAGAAGAGAGAAAAAACAUGAGGAUCACCCAUGUAGAAGGUGUAUAAA [JR_Exc002_Sub1713]”, the “apparent KD of MS2 coat protein” value in data set [1] is 38.4 nM; in data set [2], 25.8 nM.

For the sequence “AGAUCAUCAGGAUAUACAUAGGUGAAAAAAGUAAAUCCACUACAUGAGGAUCACCCAUGUAGAAGGGAUGAUCA [Ex2 Design 176: Random 4]”, the “apparent KD of MS2 coat protein” value came out at 39.1 nM in data set [1] and 30.3 nM in data set [2].

As for “AGCUAGUCAGGAUAUACAAAGAUGUCGAAAGACGUCAAGGGACAUGAGGAUCACCCAUGUAGAAGGGACUAGCA [Mod of Janderson's WEB Mod v.3]”, the results for the “apparent KD of MS2 coat protein” value in data set [1] and in data set [2] were 56.2 nM and 197 nM, respectively.

In the case of “AGCUAGUCAGGAUAUACGAAAAUGUCAGAAGCUGUGAAGGGACAUGAGGAUCACCCAUGUAGAAGGGACUAGCA [Diamond 38]”, the “apparent KD of MS2 coat protein” value is 69.1 nM in data set [1] and 218 nM in data set [2].

In the case of “AGCUAGUCAGGAUAUACGAACAGGUCAAAAGACGUAAGGGAACAUGAGGAUCACCCAUGUAGAAGGGACUAGCA [Diamond 52]”, the “apparent KD of MS2 coat protein” value in data set [1] came to 32.9 nM; in data set [2], 84.3 nM.

For “AGCUAGUCAGGAUAUACGAACAUGUCAAAAGACGAGAAGGGACAUGAGGAUCACCCAUGUAGAAGGGACUAGCA [Diamond 21]”, the “apparent KD of MS2 coat protein” value in data set [1] came to 87.5 nM; in data set [2] it was 198 nM.

In the case of “AGCUAGUCAGGAUAUACGAACAUGUCAAAAGACGUGAGAGAACAUGAGGAUCACCCAUGUAGAAGGGACUAGCA [Mat - Exclusion 2 - JL-Eli mod - D47]”, the “apparent KD of MS2 coat protein” value in data set [1] came out at 18.7 nM; in data set [2], 13.1 nM.

With “AGCUAGUCAGGAUAUACGAGAAUGAAAGAAGACGUGAAGGGACAUGAGGAUCACCCAUGUAGAAGGGACUAGCA [Diamond 25]”, the “apparent KD of MS2 coat protein” value in data set [1] worked out at 36.1 nM; in data set [2], 80.3 nM.

Consider “AGCUAGUCAGGAUAUGCGAAUAUGUCAAAAGACGUGAAGGGACAUGAGGAUCACCCAUGUAGAAGGGACUAGCA [Diamond 3]”, for which the “apparent KD of MS2 coat protein” value came out at 32.4 nM in data set [1] and 36.5 nM in data set [2].

Regarding “AGCUUCAGAGGAUAUACUUGAGUGAUAAAAGUCUGAUAACUACAUGAGGAUCACCCAUGUAGAAGGCUGUAGCA [Ex2 Design 168: Sub-opt 32]”, the results for the “apparent KD of MS2 coat protein” value in data set [1] and in data set [2] were 19.1 nM and 46 nM, respectively.

Consider “AGGAAACAUGAGGAUCACCCAUGUAAGGAUAUCAGAAAGAAAAGAAAAGAAAGAAGAAUGAGAAGGUACAAGAA [Horus Bird]”, for which the “apparent KD of MS2 coat protein” value in data set [1] stood at 29.1 nM; in data set [2], 34 nM.

Turning to “AGGAAACAUGAGGAUCACCCAUGUUAGGAUAUGAACGAAAAUAAAUAAAAAUAAAAGUUCAGAAGGGACAAAAA [66%, Wbt, 19]”, the results for the “apparent KD of MS2 coat protein” value in data set [1] and in data set [2] were 38.4 nM and 39.6 nM, respectively.

“AGGGAACAUGAGGAUCACCCAUGUGAGGAUAUACAAAAGAAAAGAAAAGAAAGAAGAAGUAGAAGGUACAAGAA [Neferka]”: the “apparent KD of MS2 coat protein” value stood at 23.9 nM in data set [1] and 43.9 nM in data set [2].

For the sequence “AGGGAACAUGAGGAUCACCCAUGUGAGGAUAUUCAAAAGAAAAGAAAAGAAAGAAGAAGAAGAAGGUACAAGAA [Neferkare Pepi II]”, the results for the “apparent KD of MS2 coat protein” value in data set [1] and in data set [2] were 42.9 nM and 36.9 nM, respectively.

Turning to “AGGUAGUCAGGAUAUACAAACAUGUCAAAAGACGUGAAAAAACAUGAGGAUCACCCAUGUAGAAGGGACUACCA [Mat - Exclusion 2 - JL mod - D21]”, the “apparent KD of MS2 coat protein” value in data set [1] was 18 nM; in data set [2], 16.3 nM.

In the case of “AGUCAGAGAGGAUAUACAUGGGAAAAAAAAGUAAGAUCCCUACAUGAGGAUCACCCAUGUAGAAGGCUCUGACA [Ex2 Design 139: Sub-opt 3]”, the “apparent KD of MS2 coat protein” value in data set [1] amounted to 22.6 nM; in data set [2], 20.2 nM.

As for “AGUCAUACAGGAUAUACAUGAGGAUCACCCAUGUAAAUCCUAAAAAGAAAAAACUCAUGUAGAAGGGUAUGACA [EX3 223: Super Stable 23]”, the results for the “apparent KD of MS2 coat protein” value in data set [1] and in data set [2] were 16.1 nM and 39.2 nM, respectively.

In the case of “AGUCGGCGAGGAUAUACAUGAGGAUCACCCAUGUGAGAGAAAAAAGUGAGAAAGAAAUGUAGAAGGCGCUGACA [JL Lego Mod 1]”, the “apparent KD of MS2 coat protein” value amounted to 90.8 nM in data set [1] and 36.8 nM in data set [2].

As for “AGUGAGUGAGGAUAUGACUGAAGAAUAAAAGAAAUAACAAGUCAGAAGGCACAUGAGGAUCACCCAUGUACACA [May 60]”, the “apparent KD of MS2 coat protein” value amounted to 28.8 nM in data set [1] and 25.6 nM in data set [2].

On to “AGUUAGCGAGGAUAUACAUGAGGAUCACCCAUGUGAGAGAAAAAAGUGAGAAAGAAAAGUAGAAGGCGCUAACA [Moding Norbert Elias (73)]”, for which the “apparent KD of MS2 coat protein” value in data set [1] turned out to be 42.3 nM; in data set [2], 119 nM.

“AGUUGGCGAGGAUAUACAUGAGGAUCACCCAUGUAAGAGUAAAGAGUGAGAAAGAGAAGUAGAAGGCGCUGACA [Ruby 57]”: the “apparent KD of MS2 coat protein” value in data set [1] came out at 53 nM; in data set [2] it was 247 nM.

Take “AGUUGGCGAGGAUAUACAUGAGGAUCACCCAUGUGAGAGAAAAAAGUGAGAAAGAAAAGUAGAAGGCGCUCACA [JL Lego Mod 12]”: the “apparent KD of MS2 coat protein” value in data set [1] was 62.1 nM; in data set [2], 49.7 nM.

For “AUAGGCCUAGGAUAUACAUGAGGAUCACCCAUGUUAAUAUUUCAAACAUGAUAAACGUGUAGAAGGAGGAAUAA [JR_Exc003_Sub303]”, the results for the “apparent KD of MS2 coat protein” value in data set [1] and in data set [2] were 41.7 nM and 50.8 nM, respectively.

On to “AUAGGUCAAGGAUAUACAUGAGGAUCACCCAUGUAAAUAACUCCAUAAAACUCCACAAGUAGAAGGUGAAAUAA [JR_Exc003_Sub202]”, for which the “apparent KD of MS2 coat protein” value worked out at 17.9 nM in data set [1] and 15.8 nM in data set [2].

As for “AUAGUACAUGAGGAUCACCCAUGUCAGGAUAUUGGAUAUGACAUGAAAAAAAUGUUAACGAGAAGGGACUAUAA [EX1 Malc#17]”, the “apparent KD of MS2 coat protein” value in data set [1] amounted to 58.6 nM; in data set [2], 80.7 nM.

For the sequence “AUCAUGUUAGGAUAUUAAAGAAAAGAAAAGAAAGAAAAGAAUAAGAAGGAACAUGAGGAUCACCCAUGUAAGAA [EteRNA is fun!]”, the “apparent KD of MS2 coat protein” value in data set [1] turned out to be 30.4 nM; in data set [2], 29.7 nM.

“AUGUAGGGAGGAUAUACAUAGAUACAGAUUCGUGUAGAACUACAUGAGGAUCACCCAUGUAGAAGGCCCUAAAA [Mat - Same state - Mayanna Mod - D124]”: the “apparent KD of MS2 coat protein” value in data set [1] is 20.1 nM; in data set [2], 43.1 nM.

Consider “CAAAAACAUGAGGAUCACCCAUGUGAGGAUAUACGAAAGUAGAAGGCACUAAAACAAAACAGAAGGACAAAACA [Meechl Ex1 R2 m3]”, for which the results for the “apparent KD of MS2 coat protein” value in data set [1] and in data set [2] were 17.9 nM and 24.6 nM, respectively.

With “CAGAGACAUGAGGAUCACCCAUGUUAGGAUAUGCGUGAAAGAAAAAAAAAGUUAAAAAGCAGAAGGAACAGAGG [JR_Exc001_Sub310]”, the “apparent KD of MS2 coat protein” value in data set [1] came to 152 nM; in data set [2] it was 33.6 nM.

For “CAGUACUGAGGAUAUACAUGAGGAUCACCCAUGUGAAAAAGCUACGAAAGUAGCACAUGUAGAAGGCAGUACUG [Ex3: 807]”, the “apparent KD of MS2 coat protein” value came out at 319 nM in data set [1] and 281 nM in data set [2].

For the sequence “CAGUACUGAGGAUAUACAUGAGGAUCACCCAUGUGAUCAAGCUACGAAAGUAGCAAAUGUAGAAGGCAGUACUG [Ex3: 809]”, the results for the “apparent KD of MS2 coat protein” value in data set [1] and in data set [2] were 40.7 nM and 31.7 nM, respectively.

For the sequence “CAUAAACAUGAGGAUCACCCAUGUGAGGAUAUGAUAUUACUAGGACGGCUGUAAUCAAUCAGAAGGCACAUCAA [JR_Exc--1_Sub1206]”, the “apparent KD of MS2 coat protein” value in data set [1] worked out at 22.5 nM; in data set [2], 41.5 nM.

Take “CCCAUGUCAGGAUAUCAGUAGUAAAAAAAAAAAAUUACUACUGAGAAGGGACAUGAGGAUCACCCAUGUCCCUU [EX4 314: Super Stable 14]”: the results for the “apparent KD of MS2 coat protein” value in data set [1] and in data set [2] were 16.9 nM and 14.2 nM, respectively.

As for “CCUGUGUGAGGAUAUGGUAUAAAAAAAAAAAAAUAGCUCCUCCAGAAGGCACAUGAGGAUCACCCAUGUCGUGG [Jolly's Folly 17 - Jieux - Exclusion 4]”, the figures for the “apparent KD of MS2 coat protein” value in data set [1] and in data set [2] were 26.9 nM and 57.1 nM, respectively.

Turning to “CGCAAGUCAGGAUAUUCGACAAGUAAAUCAGUAGAUCAGAAGAAGAAGGGACAUGAGGAUCACCCAUGUAAGUA [JR_Exc004_Sub404]”, the “apparent KD of MS2 coat protein” value in data set [1] was 29.1 nM; in data set [2], 26.3 nM.

Consider “CGCUAGUCAGGAUAUACGAACAUGUCAAAAGACGUGAAAAAACAUGAGGAUCACCCAUGUAGAAGGGACUAGCG [Mat - Exclusion 2 - JL mod - D17]”, for which the “apparent KD of MS2 coat protein” value in data set [1] was 16.2 nM; in data set [2], 14.9 nM.

On to “CUCAAGUAAGGAUAUGGAAGAAAAGAAGAGAAAGAAAAGAACCAGAAGGUACAUGAGGAUCACCCAUGUAAGAA [EteRNA is fun!]”, for which the “apparent KD of MS2 coat protein” value in data set [1] stood at 37.2 nM; in data set [2] it was 24.6 nM.

Source of the values: the supplement of paper PMC9170038.
